Results on 44 molecules are retold here after patent US20210388087A1 (Chugai, published 2021).

Changes are numbered by the printed parent chain.

B1: CE115HA000/GLS3000 S27eM (antibody, IgG1, name in Kabat numbering, V domains shown)
VH: QVQLVESGGGVVQPGRSLRLSCAASGFTFSNAWMHWVRQAPGKGLEWVAQIKAKSNNYATYYAESVKGRFTISRDDSKNSLYLQMNSLKTEDTAVYYCRYVHYGAYYGVDAWGQGTTVTVSS
VL: DIVMTQSPLSLPVTPGEPASISCRSSQSLVHMNRNTYLHWYQQKPGQAPRLLIYKVSNRFSGVPDRFSGSGSGTDFTLKISRVEAEDVGVYYCGQGTQVPYTFGQGTKLEIK
notes: one-arm IgG1
B2: CE115HA000/GLS3000 S56L (antibody, IgG1, name in Kabat numbering, V domains shown)
VH: B1 VH
VL: B1 VL with M32S, S61L
notes: one-arm IgG1
B3: CE115HA000/GLS3000 S56G (antibody, IgG1, name in Kabat numbering, V domains shown)
VH: B1 VH
VL: B1 VL with M32S, S61G
notes: one-arm IgG1
B4: CE115HA000/GLS3000 T31P (antibody, IgG1, name in Kabat numbering, V domains shown)
VH: B1 VH
VL: B1 VL with M32S, T36P
notes: one-arm IgG1
B5: CE115HA000/GLS3000 T31K (antibody, IgG1, name in Kabat numbering, V domains shown)
VH: B1 VH
VL: B1 VL with M32S, T36K
notes: one-arm IgG1
B6: CE115HA000/GLS3000 S52P (antibody, IgG1, name in Kabat numbering, V domains shown)
VH: B1 VH
VL: B1 VL with M32S, S57P
notes: one-arm IgG1
B7: CE115HA000/GLS3000 S27eT (antibody, IgG1, name in Kabat numbering, V domains shown)
VH: B1 VH
VL: B1 VL with M32T
notes: one-arm IgG1
B8: CE115HA000/GLS3000 S52A (antibody, IgG1, name in Kabat numbering, V domains shown)
VH: B1 VH
VL: B1 VL with M32S, S57A
notes: one-arm IgG1
B9: CE115HA000/GLS3000 T92P (antibody, IgG1, name in Kabat numbering, V domains shown)
VH: B1 VH
VL: B1 VL with M32S, T97P
notes: one-arm IgG1
B10: CE115HA000/GLS3000 S56E (antibody, IgG1, name in Kabat numbering, V domains shown)
VH: B1 VH
VL: B1 VL with M32S, S61E
notes: one-arm IgG1
B11: CE115HA000/GLS3000 T92E (antibody, IgG1, name in Kabat numbering, V domains shown)
VH: B1 VH
VL: B1 VL with M32S, T97E
notes: one-arm IgG1
B12: CE115HA000/GLS3000 T31N (antibody, IgG1, name in Kabat numbering, V domains shown)
VH: B1 VH
VL: B1 VL with M32S, T36N
notes: one-arm IgG1
B13: CE115HA000/GLS3000 S27eQ (antibody, IgG1, name in Kabat numbering, V domains shown)
VH: B1 VH
VL: B1 VL with M32Q
notes: one-arm IgG1
B14: CE115HA000/GLS3000 S56H (antibody, IgG1, name in Kabat numbering, V domains shown)
VH: B1 VH
VL: B1 VL with M32S, S61H
notes: one-arm IgG1
B15: CE115HA000/GLS3000 T31D (antibody, IgG1, name in Kabat numbering, V domains shown)
VH: B1 VH
VL: B1 VL with M32S, T36D
notes: one-arm IgG1
B16: CE115HA000/GLS3000 S56I (antibody, IgG1, name in Kabat numbering, V domains shown)
VH: B1 VH
VL: B1 VL with M32S, S61I
notes: one-arm IgG1
B17: CE115HA000/GLS3000 T92D (antibody, IgG1, name in Kabat numbering, V domains shown)
VH: B1 VH
VL: B1 VL with M32S, T97D
notes: one-arm IgG1
B18: CE115HA000/GLS3000 S52Q (antibody, IgG1, name in Kabat numbering, V domains shown)
VH: B1 VH
VL: B1 VL with M32S, S57Q
notes: one-arm IgG1
B19: CE115HA000/GLS3000 S56R (antibody, IgG1, name in Kabat numbering, V domains shown)
VH: B1 VH
VL: B1 VL with M32S, S61R
notes: one-arm IgG1
B20: CE115HA000/GLS3000 T31E (antibody, IgG1, name in Kabat numbering, V domains shown)
VH: B1 VH
VL: B1 VL with M32S, T36E
notes: one-arm IgG1
B21: CE115HA000/GLS3000 S56Q (antibody, IgG1, name in Kabat numbering, V domains shown)
VH: B1 VH
VL: B1 VL with M32S, S61Q
notes: one-arm IgG1
B22: CE115HA000/GLS3000 S27eR (antibody, IgG1, name in Kabat numbering, V domains shown)
VH: B1 VH
VL: B1 VL with M32R
notes: one-arm IgG1
B23: CE115HA000/GLS3000 T92A (antibody, IgG1, name in Kabat numbering, V domains shown)
VH: B1 VH
VL: B1 VL with M32S, T97A
notes: one-arm IgG1
B24: CE115HA000/GLS3000 S27eP (antibody, IgG1, name in Kabat numbering, V domains shown)
VH: B1 VH
VL: B1 VL with M32P
notes: one-arm IgG1
B25: CE115HA000/GLS3000 S56K (antibody, IgG1, name in Kabat numbering, V domains shown)
VH: B1 VH
VL: B1 VL with M32S, S61K
notes: one-arm IgG1
B26: CE115HA000/GLS3000 T92L (antibody, IgG1, name in Kabat numbering, V domains shown)
VH: B1 VH
VL: B1 VL with M32S, T97L
notes: one-arm IgG1
B27: CE115HA000/GLS3000 S56D (antibody, IgG1, name in Kabat numbering, V domains shown)
VH: B1 VH
VL: B1 VL with M32S, S61D
notes: one-arm IgG1
B28: CE115HA000/GLS3000 S52Y (antibody, IgG1, name in Kabat numbering, V domains shown)
VH: B1 VH
VL: B1 VL with M32S, S57Y
notes: one-arm IgG1
B29: CE115HA000/GLS3000 S56A (antibody, IgG1, name in Kabat numbering, V domains shown)
VH: B1 VH
VL: B1 VL with M32S, S61A
notes: one-arm IgG1
B30: CE115HA000/GLS3000 S56T (antibody, IgG1, name in Kabat numbering, V domains shown)
VH: B1 VH
VL: B1 VL with M32S, S61T
notes: one-arm IgG1
B31: CE115HA000/GLS3000 S52D (antibody, IgG1, name in Kabat numbering, V domains shown)
VH: B1 VH
VL: B1 VL with M32S, S57D
notes: one-arm IgG1
B32: CE115HA000/GLS3000 S56W (antibody, IgG1, name in Kabat numbering, V domains shown)
VH: B1 VH
VL: B1 VL with M32S, S61W
notes: one-arm IgG1
B33: CE115HA000/GLS3000 S27eV (antibody, IgG1, name in Kabat numbering, V domains shown)
VH: B1 VH
VL: B1 VL with M32V
notes: one-arm IgG1
B34: CE115HA000/GLS3000 S27eY (antibody, IgG1, name in Kabat numbering, V domains shown)
VH: B1 VH
VL: B1 VL with M32Y
notes: one-arm IgG1
B35: CE115HA000/GLS3000 T31I (antibody, IgG1, name in Kabat numbering, V domains shown)
VH: B1 VH
VL: B1 VL with M32S, T36I
notes: one-arm IgG1
B36: CE115HA000/GLS3000 S56P (antibody, IgG1, name in Kabat numbering, V domains shown)
VH: B1 VH
VL: B1 VL with M32S, S61P
notes: one-arm IgG1
B37: CE115HA000/GLS3000 S27eN (antibody, IgG1, name in Kabat numbering, V domains shown)
VH: B1 VH
VL: B1 VL with M32N
notes: one-arm IgG1
B38: CE115HA000/GLS3000 S56F (antibody, IgG1, name in Kabat numbering, V domains shown)
VH: B1 VH
VL: B1 VL with M32S, S61F
notes: one-arm IgG1
B39: CE115HA000/GLS3000 S56Y (antibody, IgG1, name in Kabat numbering, V domains shown)
VH: B1 VH
VL: B1 VL with M32S, S61Y
notes: one-arm IgG1
B40: CE115HA000/GLS3000 S56M (antibody, IgG1, name in Kabat numbering, V domains shown)
VH: B1 VH
VL: B1 VL with M32S, S61M
notes: one-arm IgG1
B41: CE115HA000/GLS3000 S56V (antibody, IgG1, name in Kabat numbering, V domains shown)
VH: B1 VH
VL: B1 VL with M32S, S61V
notes: one-arm IgG1
B42: CE115HA000/GLS3000 S56N (antibody, IgG1, name in Kabat numbering, V domains shown)
VH: B1 VH
VL: B1 VL with M32S, S61N
notes: one-arm IgG1
B43: CE115HA000/GLS3000 S27eW (antibody, IgG1, name in Kabat numbering, V domains shown)
VH: B1 VH
VL: B1 VL with M32W
notes: one-arm IgG1
B44: CE115HA000/GLS3000 T92I (antibody, IgG1, name in Kabat numbering, V domains shown)
VH: B1 VH
VL: B1 VL with M32S, T97I
notes: one-arm IgG1

The target in this experiment is T1, CD3 epsilon homodimer protein (UniProt P07766 23-126).
T1 construct: also called CD3 (CD3 epsilon)
T1 sequence (P07766 23-126): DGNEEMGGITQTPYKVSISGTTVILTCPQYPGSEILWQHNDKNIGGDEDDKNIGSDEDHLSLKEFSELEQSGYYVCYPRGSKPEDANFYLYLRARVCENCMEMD
Briefly: SPR, antibody over immobilised CD3e homodimer.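 Also: SPR at 25 °C with CD3 epsilon homodimer amine-coupled to a CM4 sensor chip and antibody flowed over as analyte in HBS-EP+ running buffer.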
Experimental: An appropriate amount of CD3 epsilon homodimer protein was immobilized onto Sensor chip CM4 (GE Healthcare Japan Corp.) by the amine coupling method. Then, the antibody having an appropriate concentration was injected thereto as an analyte and allowed to interact with the CD3 epsilon homodimer protein on the sensor chip. Then, the sensor chip was regenerated by the injection of 10 mmol/L glycine-HCl (pH 1.5). The assay was conducted at 25 degrees C., and HBS-EP+(GE Healthcare Japan Corp.) was used as a running buffer. […] Each parameter was calculated using Biacore T200 Evaluation Software (GE Healthcare Japan Corp.).
Consider B1, for which the “KD ratio to GLS3000” value stood at 1.11.

In the case of B2, the “KD ratio to GLS3000” value worked out at 1.03.

Turning to B3, the “KD ratio to GLS3000” value came out at 0.99.

Turning to B4, the “KD ratio to GLS3000” value worked out at 10.8.

For B5, the “KD ratio to GLS3000” value was 0.88.

Turning to B6, the “KD ratio to GLS3000” value was found to be 7.38.

On to B7, for which the “KD ratio to GLS3000” value came to 0.98.

Take B8: the “KD ratio to GLS3000” value was determined as 0.9.

Regarding B9, the “KD ratio to GLS3000” value turned out to be 26.7.

Consider B10, for which the “KD ratio to GLS3000” value turned out to be 0.91.

Regarding B11, the “KD ratio to GLS3000” value came to 19.6.

On to B12, for which the “KD ratio to GLS3000” value worked out at 4.46.

For B13, the “KD ratio to GLS3000” value was determined as 1.08.

As to B14, the “KD ratio to GLS3000” value was determined as 0.96.

Regarding B15, the “KD ratio to GLS3000” value worked out at 30.9.

On to B16, for which the “KD ratio to GLS3000” value was found to be 1.01.

For the molecule B17, the “KD ratio to GLS3000” value was 11.2.

B18: the “KD ratio to GLS3000” value stood at 1.01.

On to B19, for which the “KD ratio to GLS3000” value was 1.15.

With B20, the “KD ratio to GLS3000” value was 1.59.

On to B21, for which the “KD ratio to GLS3000” value worked out at 0.97.

Regarding B22, the “KD ratio to GLS3000” value is 1.35.

Consider B23, for which the “KD ratio to GLS3000” value came out at 1.35.

For B24, the “KD ratio to GLS3000” value worked out at 1.06.

As for B25, the “KD ratio to GLS3000” value is 1.21.

B26: the “KD ratio to GLS3000” value turned out to be 1.61.

On to B27, for which the “KD ratio to GLS3000” value is 1.11.

Take B28: the “KD ratio to GLS3000” value amounted to 1.02.

In the case of B29, the “KD ratio to GLS3000” value was 1.18.

For B30, the “KD ratio to GLS3000” value turned out to be 1.01.

For the molecule B31, the “KD ratio to GLS3000” value amounted to 0.94.

Regarding B32, the “KD ratio to GLS3000” value was found to be 1.12.

Consider B33, for which the “KD ratio to GLS3000” value is 0.95.

B34: the “KD ratio to GLS3000” value came to 1.1.

On to B35, for which the “KD ratio to GLS3000” value was found to be 1.1.

For B36, the “KD ratio to GLS3000” value is 0.98.

As to B37, the “KD ratio to GLS3000” value is 1.01.

Take B38: the “KD ratio to GLS3000” value stood at 1.12.

For the molecule B39, the “KD ratio to GLS3000” value was 1.1.

Take B40: the “KD ratio to GLS3000” value turned out to be 0.93.

As for B41, the “KD ratio to GLS3000” value worked out at 0.94.

In the case of B42, the “KD ratio to GLS3000” value worked out at 0.9.

Turning to B43, the “KD ratio to GLS3000” value came out at 1.32.

As to B44, the “KD ratio to GLS3000” value came to 1.91.
